Results: publication PMC9346500

Molecular target: full-length (FL) UBQLN2 (UniProt Q9UHD9)
Assay: NMR titration

Kd: 3000 nM
Substance: ubiquitin (Ub) (from UniProt P0CG48 1-76) (natural protein; other documents disagree on this pair)
